Laboratory results published in patent US20070004622A1 (REGEN BIOTECH, published 2007).

Biological target: αvβ3 integrin (human, UniProt P06756 31-1048; P05106 27-788)
Assay: cell-based or functional assay

αvβ3 integrin, sequence (P06756 31-1048, chain 1 of 2): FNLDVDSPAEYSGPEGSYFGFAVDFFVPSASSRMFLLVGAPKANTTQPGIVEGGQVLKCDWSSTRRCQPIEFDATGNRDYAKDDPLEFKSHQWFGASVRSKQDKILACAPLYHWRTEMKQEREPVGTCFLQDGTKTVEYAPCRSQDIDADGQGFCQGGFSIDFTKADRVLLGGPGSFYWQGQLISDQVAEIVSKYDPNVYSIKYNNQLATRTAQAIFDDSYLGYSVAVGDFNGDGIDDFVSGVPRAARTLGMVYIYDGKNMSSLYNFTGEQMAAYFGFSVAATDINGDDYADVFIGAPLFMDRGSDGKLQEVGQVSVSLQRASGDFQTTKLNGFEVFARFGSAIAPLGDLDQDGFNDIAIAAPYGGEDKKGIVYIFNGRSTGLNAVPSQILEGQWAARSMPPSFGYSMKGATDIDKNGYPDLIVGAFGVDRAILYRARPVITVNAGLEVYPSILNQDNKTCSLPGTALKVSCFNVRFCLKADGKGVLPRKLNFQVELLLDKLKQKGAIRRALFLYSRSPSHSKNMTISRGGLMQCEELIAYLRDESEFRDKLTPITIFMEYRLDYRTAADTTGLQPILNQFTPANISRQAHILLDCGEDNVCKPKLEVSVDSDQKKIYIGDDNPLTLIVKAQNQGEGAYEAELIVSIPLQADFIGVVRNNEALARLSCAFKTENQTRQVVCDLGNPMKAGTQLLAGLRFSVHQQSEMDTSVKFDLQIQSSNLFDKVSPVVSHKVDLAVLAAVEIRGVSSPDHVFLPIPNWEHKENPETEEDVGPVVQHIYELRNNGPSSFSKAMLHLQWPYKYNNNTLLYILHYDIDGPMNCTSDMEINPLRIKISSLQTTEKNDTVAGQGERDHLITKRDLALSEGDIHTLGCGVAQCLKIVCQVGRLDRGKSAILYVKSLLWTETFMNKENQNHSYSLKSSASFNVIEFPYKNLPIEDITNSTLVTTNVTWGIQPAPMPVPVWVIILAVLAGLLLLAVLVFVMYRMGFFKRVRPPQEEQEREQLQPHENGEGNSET
αvβ3 integrin, sequence (P05106 27-788, chain 2 of 2): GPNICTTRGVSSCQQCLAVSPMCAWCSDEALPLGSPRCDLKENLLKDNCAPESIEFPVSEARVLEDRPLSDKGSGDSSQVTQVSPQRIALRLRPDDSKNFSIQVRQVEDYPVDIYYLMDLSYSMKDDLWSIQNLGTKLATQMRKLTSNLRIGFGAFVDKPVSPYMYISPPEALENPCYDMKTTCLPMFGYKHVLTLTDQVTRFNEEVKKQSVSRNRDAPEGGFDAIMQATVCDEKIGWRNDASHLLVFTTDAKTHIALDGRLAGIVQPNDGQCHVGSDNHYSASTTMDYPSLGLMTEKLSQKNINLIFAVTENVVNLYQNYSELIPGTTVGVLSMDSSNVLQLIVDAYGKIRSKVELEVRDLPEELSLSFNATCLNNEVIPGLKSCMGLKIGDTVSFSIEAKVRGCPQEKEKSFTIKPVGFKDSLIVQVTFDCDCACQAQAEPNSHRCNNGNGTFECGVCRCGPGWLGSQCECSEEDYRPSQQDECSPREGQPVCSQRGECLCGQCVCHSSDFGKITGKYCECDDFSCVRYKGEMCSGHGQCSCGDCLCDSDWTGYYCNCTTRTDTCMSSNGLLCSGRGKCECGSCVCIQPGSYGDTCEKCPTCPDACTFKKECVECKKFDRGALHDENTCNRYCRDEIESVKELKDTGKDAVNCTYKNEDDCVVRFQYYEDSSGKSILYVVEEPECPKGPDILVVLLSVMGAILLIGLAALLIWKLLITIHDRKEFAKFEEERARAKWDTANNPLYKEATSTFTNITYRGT

- IC50 of inhibition of HUVEC tube formation on Matrigel: 500 µM
Binder: KELANILKYHIGDEILVS [YH18 synthetic peptide derived from the fourth fas-1 domain of βig-h3 (D-IV YH18)]
